Source: the supplement of paper PMC11908140

B1: library; numbered along this chain (parent)
chain: MRKPRAAVGSGHRKQAASQEGRQKHAKNNSQAKPSACDGLARQPEEVVLQASVSSYHLFRDVAEVTAFRGSLLSWYDQEKRDLPWRRRAEDEMDLDRRAYAVWVSEVMLQQTQVATVINYYTGWMQKWPTLQDLASASLEEVNQLWAGLGYYSRGRRLQEGARKVVEELGGHMPRTAETLQQLLPGVGRYTAGAIASIAFGQATGVVDGNVARVLCRVRAIGADPSSTLVSQQLWGLAQQLVDPARPGDFNQAAMELGATVCTPQRPLCSQCPVESLCRARQRVEQEQLLASGSLSGSPDVEECAPNTGQCHLCLPPSEPWDQTLGVVNFPRKASRKPPREESSATCVLEQPGALGAQILLVQRPNSGLLAGLWEFPSVTWEPSEQLQRKALLQELQRWAGPLPATHLRHLGEVVHTFSHIKLTYQVYGLALEGQTPVTTVPPGARWLTQEEFHTAAVSTAMKKVFRVYQGQQPGTCMGSKRSQVSSPCSRKKPRMGQQVLDNFFRSHISTDAHSLNSAAQ

Variants of: B1
Experiment: 8OG:A repair function score (normalized; synonymous = 0, nonsense = -1) (normalized log-likelihood score); higher = more repair activity (WT-like)
Conditions: with 8OG:A DNA repair reporter (GFP) in HEK-293 MUTYH KO cells
Outline: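 After 72 h, viable mCherry+ cells were split into GFP+ (repair) and GFP− bins in three replicates per tile. These cells were MUTYH knockout HEK-293 cells holding lentiviral MUTYH cDNA NNN codon-scan libraries, kept in 10 pg/ml doxycycline and co-transfected with mCherry plus an 8OG:A GFP repair reporter. Sequencing of tile amplicons gave per-tile Rosace fitness scores, normalized into a repair function score anchored on synonymous and nonsense distributions. Synonymous medians were fixed at 0, nonsense at -1, and variants under 300 counts per million at the start were removed.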
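Further: cells sorted at 72 h after reporter transfection.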

Row | Variant | 8OG:A repair function score
1 | P185F | -0.285
2 | I221R | -0.972
3 | L408A | -0.717
4 | V465H | -0.79
5 | E168F | -0.102
6 | E106Y | -1.24
7 | T346W | -0.751
8 | L313P | -0.504
9 | R340L | -0.211
10 | E341C | -0.0275
11 | Q265M | -0.0825
12 | P34E | 0.0965
13 | Q397L | -0.101
14 | Y121T | -1.25
15 | T424W | -0.204
16 | D61M | -0.00523
17 | R389K | -0.274
18 | I421R | -0.207
19 | S74K | -0.0253
20 | T436R | -0.124
21 | P365M | -0.184
22 | L257P | -1
23 | V500C | -0.0118
24 | T511A | -0.038

Row | Variant | 8OG:A repair function score
25 | H407D | 0.0493
26 | R217P | -1.04
27 | D502P | -0.0101
28 | C347R | -1.15
29 | G236R | 0.107
30 | R157N | 0.023
31 | S231M | 0.155
32 | H407N | 0.205
33 | T324D | -0.162
34 | L369I | -0.0978
35 | S510D | -0.0311
36 | A192M | -0.964
37 | Q499N | -0.0201
38 | K464R | -0.123
39 | P273G | -0.625
40 | C347Y | -0.846
41 | R87K | 0.00471
42 | V441T | -0.0387
43 | L396R | -0.992
44 | A36Q | -0.0644
45 | L403E | -0.596
46 | L49Q | -0.00358
47 | T260A | -0.056
48 | G248K | -0.801

Row | Variant | 8OG:A repair function score
49 | A431Y | -0.0701
50 | S344V | -0.00413
51 | F68I | -0.126
52 | L315C | -0.0705
53 | S518H | -0.0153
54 | L237T | -0.184
55 | P317M | 0.112
56 | S367C | -0.0437
57 | M255A | -0.993
58 | D224I | -0.934
59 | A203C | -0.101
60 | Y120S | -0.126
61 | K481M | -0.00967
62 | P316T | -0.057
63 | G186Q | -0.401
64 | Q78M | -0.517
65 | D133F | -0.0791
66 | T436Y | 0.0674
67 | T476C | -0.0603
68 | R163H | -0.238
69 | R506I | 0.0189
70 | Q110R | -0.82
71 | V211H | -0.617
72 | K80R | -0.0152

Row | Variant | 8OG:A repair function score
73 | V206A | -0.219
74 | V102T | -0.0943
75 | A305Q | -0.0168
76 | G236K | 0.114
77 | R81C | -1.02
78 | Y151L | -0.0762
79 | P34T | -0.0245
80 | S71H | -0.0346
81 | L234Q | -0.724
82 | K337I | -0.106
83 | A371L | -0.5
84 | M462S | -0.0759
85 | Q388R | 0.206
86 | P247A | -0.379
87 | K333A | 0.0254
88 | Q499M | 0.00183
89 | A457W | -0.671
90 | V301D | -0.39
91 | G170W | -0.239
92 | P474E | 0.0263
93 | A280N | -0.632
94 | H416C | -0.483
95 | Q282S | -0.0408
96 | A41D | -0.0561

Row | Variant | 8OG:A repair function score
97 | Y152H | -0.695
98 | L295V | 0.0106
99 | H172K | 0.118
100 | E385A | 0.0147
101 | G123F | -0.0297
102 | F250L | -0.595
103 | P331D | -0.501
104 | R217C | -1.03
105 | H57Y | -0.569
106 | P316K | -0.0182
107 | P339M | -0.0671
108 | V327G | -0.53
109 | E106W | -1.04
110 | L403I | 0.0162
111 | L72D | -1.11
112 | L58R | 0.00693
113 | Q111V | -0.38
114 | V165H | -1.11
115 | G70C | 0.00567
116 | L315A | -0.104
117 | E90Q | -0.0474
118 | E178M | 0.0407
119 | A305V | -0.0191
120 | R266Y | -0.102

Row | Variant | 8OG:A repair function score
121 | D96A | -0.536
122 | R69L | -1.24
123 | Q435V | -0.157
124 | Q144S | 0.0476
125 | P494C | 0.0281
126 | L109Y | -1.24
127 | A220F | -0.676
128 | V142G | -0.5
129 | T228A | 0.0743
130 | A520C | -0.000175
131 | A513R | 0.00911
132 | P352R | -0.124
133 | Q113G | -0.109
134 | L501S | 0.0215
135 | D91G | -0.00708
136 | L392P | -1.09
137 | L83P | -0.673
138 | Q240W | -1
139 | L516W | -0.0603
140 | K463T | -0.141
141 | R283P | -0.625
142 | S518I | -0.00126
143 | P299E | -0.036
144 | T346P | -0.585

Row | Variant | 8OG:A repair function score
145 | L289G | -0.00218
146 | A513N | 0.0128
147 | L145E | -0.0292
148 | S487T | -0.0203
149 | A431T | -0.0229
150 | S490W | -0.0113
151 | C304P | -0.398
152 | P306E | -0.0828
153 | I421Y | -0.435
154 | W128M | -0.374
155 | L369C | -0.0782
156 | Q78N | -0.105
157 | G236S | 0.254
158 | E275A | 0.0221
159 | I421N | -0.83
160 | C216D | -0.949
161 | D94E | -0.625
162 | D61I | -0.0219
163 | R42F | 0.00894
164 | E90K | 0.00313
165 | F466D | -0.872
166 | L369Q | 0.0329
167 | A115F | -0.146
